The values that follow come from article PMC2786168.

The target in one series is T1, RNase R wild-type (Escherichia coli, UniProt P21499 1-813).
T1 sequence: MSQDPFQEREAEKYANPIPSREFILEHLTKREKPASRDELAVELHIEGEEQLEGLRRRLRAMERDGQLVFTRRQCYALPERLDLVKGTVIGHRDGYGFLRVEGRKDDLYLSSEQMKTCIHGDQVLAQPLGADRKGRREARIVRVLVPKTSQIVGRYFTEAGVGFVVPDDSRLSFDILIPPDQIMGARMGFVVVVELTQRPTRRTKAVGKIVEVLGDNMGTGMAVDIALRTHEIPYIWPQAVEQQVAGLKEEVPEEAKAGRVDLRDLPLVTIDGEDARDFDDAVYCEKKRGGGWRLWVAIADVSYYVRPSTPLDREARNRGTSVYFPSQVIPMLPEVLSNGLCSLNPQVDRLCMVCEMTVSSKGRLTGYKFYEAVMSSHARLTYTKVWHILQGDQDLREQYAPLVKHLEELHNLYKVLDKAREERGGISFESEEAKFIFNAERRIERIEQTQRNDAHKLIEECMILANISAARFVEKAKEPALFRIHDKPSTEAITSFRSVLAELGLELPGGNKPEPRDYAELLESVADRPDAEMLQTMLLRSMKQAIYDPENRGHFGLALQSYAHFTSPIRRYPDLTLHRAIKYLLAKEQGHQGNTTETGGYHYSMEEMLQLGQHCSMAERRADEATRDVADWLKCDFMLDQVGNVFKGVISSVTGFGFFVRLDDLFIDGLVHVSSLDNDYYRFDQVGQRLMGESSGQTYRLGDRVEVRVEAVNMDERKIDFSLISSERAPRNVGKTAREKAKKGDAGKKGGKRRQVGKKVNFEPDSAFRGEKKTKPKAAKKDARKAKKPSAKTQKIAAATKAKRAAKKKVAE
The experiment in a line: filter binding.

Another series concerns the target T2, RNase R R572K (Escherichia coli, UniProt P21499 1-813, R572K).
T2 sequence: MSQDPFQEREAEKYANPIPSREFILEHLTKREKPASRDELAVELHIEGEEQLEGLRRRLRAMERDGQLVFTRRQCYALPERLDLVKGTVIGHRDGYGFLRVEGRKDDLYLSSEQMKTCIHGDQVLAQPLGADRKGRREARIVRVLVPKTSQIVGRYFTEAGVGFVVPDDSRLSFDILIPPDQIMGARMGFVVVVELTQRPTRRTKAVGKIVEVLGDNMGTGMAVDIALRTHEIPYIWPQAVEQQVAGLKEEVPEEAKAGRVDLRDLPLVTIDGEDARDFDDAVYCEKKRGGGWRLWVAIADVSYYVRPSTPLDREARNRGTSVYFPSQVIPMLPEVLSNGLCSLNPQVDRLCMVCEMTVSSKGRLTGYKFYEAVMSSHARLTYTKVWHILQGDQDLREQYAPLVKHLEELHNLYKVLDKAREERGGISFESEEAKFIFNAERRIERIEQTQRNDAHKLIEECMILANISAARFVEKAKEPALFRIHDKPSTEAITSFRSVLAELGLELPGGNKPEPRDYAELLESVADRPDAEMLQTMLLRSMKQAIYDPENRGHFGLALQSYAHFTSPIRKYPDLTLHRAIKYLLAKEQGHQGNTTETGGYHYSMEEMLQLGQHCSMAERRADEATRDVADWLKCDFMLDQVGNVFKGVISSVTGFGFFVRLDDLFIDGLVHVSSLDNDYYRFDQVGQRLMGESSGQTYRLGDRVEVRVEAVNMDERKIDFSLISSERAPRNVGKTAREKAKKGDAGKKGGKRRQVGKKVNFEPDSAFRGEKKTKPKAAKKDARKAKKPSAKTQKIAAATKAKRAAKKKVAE
Kind of series: filter binding.

B1: A17 (ssRNA)
RNA: AAAAAAAAAAAAAAAAA
Turning to B1, the figures for the equilibrium dissociation constant (Kd) with RNase R wild-type and in the series with RNase R R572K were 0.8 ± 0.1 nM and 0.5 ± 0.1 nM, respectively.
